Patent US20260193348A1 (ANTENGENE BIOLOGICS, published 2026)
Where two headings read alike, the source gives them in different places. One block for each binder: values may come before it.

Experiments:
GPRC5D on MM.1S cells [1] = target: T1, GPRC5D on MM.1S cells (human, UniProt Q9NZD1 1-345); test: cell-based or functional assay
CD3 on Jurkat cells = target: T2, CD3 on Jurkat cells (UniProt P07766 23-207; P04234 22-171; P09693 23-182); test: FACS on Jurkat cells
T2 construct: whole, on cells; On the cell, CD3 stands in the TCR-CD3 complex; also called cluster of differentiation 3
T2 sequence (P07766 23-207, chain 1 of 3): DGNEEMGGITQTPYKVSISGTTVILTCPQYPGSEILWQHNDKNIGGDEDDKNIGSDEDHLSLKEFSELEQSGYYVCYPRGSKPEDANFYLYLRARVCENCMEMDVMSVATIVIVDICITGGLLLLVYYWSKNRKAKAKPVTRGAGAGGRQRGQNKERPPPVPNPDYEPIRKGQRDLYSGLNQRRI
T2 sequence (P04234 22-171, chain 2 of 3): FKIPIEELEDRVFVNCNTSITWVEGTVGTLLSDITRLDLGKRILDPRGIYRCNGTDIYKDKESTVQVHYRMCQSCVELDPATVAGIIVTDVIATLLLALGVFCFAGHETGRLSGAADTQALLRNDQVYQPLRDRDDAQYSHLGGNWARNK
T2 sequence (P09693 23-182, chain 3 of 3): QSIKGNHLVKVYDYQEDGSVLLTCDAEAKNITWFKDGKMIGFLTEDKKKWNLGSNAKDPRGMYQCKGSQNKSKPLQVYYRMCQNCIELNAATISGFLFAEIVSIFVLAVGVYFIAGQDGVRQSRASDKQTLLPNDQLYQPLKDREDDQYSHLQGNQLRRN
Method: (§1) The binding affinities of the generated humanized Fab-scFv-Fab bispecific antibodies were determined by FACS analysis. […] (a) Jurkat cells were washed by Staining Buffer (PBS+1% BSA) in round bottom 96-well plate. [0833] (b) Antibody dilutions and cells were added to each well, incubated at 4 degrees for 1 hour. [0834] (c) Cells were spined down at 300 g for 3 minutes, and the supernatants were discarded. [0835] (d) Cells were washed with Staining Buffer. […] (e) Step (d) was repeated and the cells were incubated for 0.5 hours at 4 degrees with secondary antibody in Staining Buffer. [0837] (f) After incubation, step (d)-(e) were repeated. […] (g) Staining Buffer was added and fluorescence signals were recorded by flow cytometry.
The binding affinities of the generated humanized Fab-scFv-Fab bispecific antibodies were determined by FACS analysis. The ATG-Bis-40E9 described in Example 1 was used as positive control and hIgG1 isotype was used as negative control. The protocol for FACS analysis is described in Example 3.2 above.

GPRC5D on MM.1S cells [2] = target: T1, GPRC5D on MM.1S cells; test: FACS on MM.1S cells
GPRC5D on MM.1S cells [3] = target: T1, GPRC5D on MM.1S cells; test: cell-based or functional assay; remark: listed apart in the source
[4] = target: T3, GPRC5D (G-protein coupled receptor family C group 5 member D), human, on multiple myeloma cell lines (human, UniProt Q9NZD1 1-345); test: FACS, MOLP-8 cells
T3 construct: whole, on cells; Target as carried by MM.1S, MOLP-8, L363 and RPMI8226 cells
T3 sequence (Q9NZD1 whole entry): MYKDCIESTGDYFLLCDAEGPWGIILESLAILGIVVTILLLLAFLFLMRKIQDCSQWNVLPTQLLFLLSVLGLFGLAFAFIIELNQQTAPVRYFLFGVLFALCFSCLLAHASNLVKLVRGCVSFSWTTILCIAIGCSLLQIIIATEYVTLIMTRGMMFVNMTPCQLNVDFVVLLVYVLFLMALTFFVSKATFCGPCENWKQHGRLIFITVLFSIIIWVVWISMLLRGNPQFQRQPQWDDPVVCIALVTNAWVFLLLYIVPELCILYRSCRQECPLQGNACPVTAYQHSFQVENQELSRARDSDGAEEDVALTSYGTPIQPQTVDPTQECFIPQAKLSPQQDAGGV
Method: as §1
(§2) The binding affinities of the generated humanized Fab-scFv-Fab bispecific antibodies to different multiple myeloma cell lines were evaluated by FACS analysis. The protocol for FACS analysis is identical to that described in Example 3.2, except that different cells were used in this example, i.e., multiple myeloma cell lines (MM.1S, […], L363 and RPMI 8226) were used in this example.

[5] = target: T3, GPRC5D (G-protein coupled receptor …); test: FACS, MM.1S cells
Method: as §1, §2

[6] = target: T3, GPRC5D (G-protein coupled receptor …); test: cell-based or functional assay
[7] = target: T3, GPRC5D (G-protein coupled receptor …); test: cell-based or functional assay; remark: listed apart in the source
[8] = target: T4, CD3 (Cluster of Differentiation 3 protein), human, on T cells / Jurkat cells (human, UniProt P07766 23-207; P04234 22-171; P09693 23-182); test: FACS, Jurkat cells, antibody at 50 µg/ml
T4 construct: whole, on cells; part of the TCR-CD3 complex; also called human CD3
T4 sequence (P07766 23-207, chain 1 of 3): as the sequence (P07766 23-207, chain 1 of 3) above
T4 sequence (P04234 22-171, chain 2 of 3): as the sequence (P04234 22-171, chain 2 of 3) above
T4 sequence (P09693 23-182, chain 3 of 3): as the sequence (P09693 23-182, chain 3 of 3) above
Method: as §1

[9] = target: T4, CD3 (Cluster of Differentiation 3 …); test: FACS, CD3+ T cells isolated from normal donors
Method: To evaluate the binding affinity of the generated chimeric bispecific antibody to T cells, the isolated CD3⁺ T cells were stained by antibodies and the binding affinity was determined by FACS analysis. The protocol of FACS analysis is described as follows: [0785] (a) CD3⁺ T cells were isolated from normal donors. [0786] (b) The isolated CD3⁺ T cells were washed by Staining Buffer (PBS+1% BSA) in round bottom 96-well plate. […] (c) Antibody dilutions were added to each well and mixed with the CD3+ T cells, incubated at 4 degrees for 1 hour. […] (d) Cells were spined at 300 g for 3 minutes, then the supernatants were discarded. [0789] (e) Cells were washed with Staining Buffer. [0790] (f) Step (d) was repeated, and the cells were incubated with secondary antibody in Staining Buffer for 0.5 hours at 4 degrees. [0791] (g) After incubation, step (d)-(e) were repeated. [0792] (h) Cells were resuspended in Staining Buffer and fluorescence signals were recorded by flow cytometry.

[10] = target: T3, GPRC5D (G-protein coupled receptor …); test: cell-based or functional assay; remark: listed apart in the source
[11] = target: T3, GPRC5D (G-protein coupled receptor …); test: cell-based or functional assay; remark: listed apart in the source

T1 sequence (Q9NZD1 whole entry): as the sequence (Q9NZD1 whole entry) above

EC50, Jurkat-NFAT-Luciferase assay in the presence of MM.1S cells (GPRC5D on MM.1S cells [1]): 0.22 nM
Top RLU, Jurkat-NFAT-Luciferase assay in the presence of MM.1S cells (GPRC5D on MM.1S cells [1]): 380 RLU
Top signal (CD3 on Jurkat cells): 158 MFI
EC50 (GPRC5D on MM.1S cells [2]): 2 nM
Top signal (GPRC5D on MM.1S cells [2]): 2040 MFI
B1: Bis-108+147-S32T.L (bispecific antibody)
chain 1: EVQLVQSGAEVKKPGASVKVSCKASGYTFTSYVIHWVRQAPGQGLEWMGYFNPYNDGTKYNEEFKGRVTLTSDKSTSTAYMELRSLRSDDTAVYYCARGGVRRYFDVWGQGTTVTVSS
chain 2: EVQLVQSGAEVKKPGSSVKVSCKASGYTFTSYWMHWVRQAPGQCLEWMGNINPSSGATNYNEKFKSRVTLTVDKSTSTAYMELSSLRSEDTAVYYCARDRSSQYYFDYWGQGTTVTVSSGGGGSGGGGSGGGGSGGGGSDIVMTQSPDSLAVSLGERATINCKSSQSLLNTRSRKNYLAWYQQKPGQPPKLLIYWASTRESGVPDRFSGSGSGTDFTLTISSLQAEDVAVYYCTQSYTLRTFGCGTKVEIK
chain 3: DIQMTQSPSSLSASVGDRVTITCRASQDIGSNLNWLQQKPGKAIKRLIYATFGLDSGVPSRFSGSRSGTDFTLTISSLQPEDFATYYCQQYASFPYTFGGGTKVEIK
IC50 of T-cell dependent cytotoxicity on MM.1S cells (GPRC5D on MM.1S cells [3]): 4.76 nM
Top (%) target cell killing, MM.1S cells (GPRC5D on MM.1S cells [3]): 166%

EC50 [4]: 0.817 nM
Top (MFI) [4]: 958 MFI
EC50 [5]: 11.3 nM
Top (MFI) [5]: 1200 MFI
EC50 (nM), luciferase assay, L363 [7]: 69.4 nM
EC50 (nM), luciferase assay, MM.1S [7]: 0.739 nM
EC50 (nM), luciferase assay, MOLP-8 [7]: 0.374 nM
EC50 (nM), luciferase assay, RPMI8226 [7]: 0.071 nM
MFI (50 µg/ml) [8]: 490 MFI
EC50 [9]: 287 nM
Top (MFI) [9]: 1990 MFI
EC50 (nM), luciferase assay, L363 [10]: 0.028 nM
EC50 (nM), luciferase assay, MM.1S [10]: 0.787 nM
EC50 (nM), luciferase assay, MOLP-8 [10]: 0.0186 nM
EC50 (nM), luciferase assay, RPMI8226 [10]: 0.117 nM
Top (RLU), luciferase assay, L363 [10]: 1050 RLU
Top (RLU), luciferase assay, MM.1S [10]: 3550 RLU
Top (RLU), luciferase assay, MOLP-8 [10]: 826 RLU
Top (RLU), luciferase assay, RPMI8226 [10]: 776 RLU
B2: ATG-Bis-40E9 (bispecific antibody)
heavy: EVQLQQSGPELVKPGASVKMSCKASGYTFTSYVIHWVKQKTGQGLEWIGYFNPYNDGTKYNEEFKGKATLTSDKSSNTAYMELNSLTSDDSAVYFCARGGVRRYFDVWGAGTTVTVSS
heavy (part 1 of 2): B2 heavy
heavy (part 2 of 2): GGGGSGGGGSEVQLQLSGPELVKPGASVKMSCKASGYTFSSYVIHWVKQKPGQGLEWIGYINPYNDVIKYNEKFKGKATLTSDKSSSTAYMELSSLTSEDSAVYYCARDSYYSYDGFAYWGQGTLVTVSAGGGGSGGGGSGGGGSGGGGSQIVLTQSPAIMSASPGEKVTMTCSASSSVSYMHWYQQKSGTSPKRWIYDTSKLASGVPARFSGSGSGTSYSLTISSMEAEDAATYYCQQWSSNPPTFGGGTKVEIKGGGGSGGGGS
light: DIQMTQSPSSLSASLGERVSLTCRASQDIGSNLNWLQQEPDGTIKRLIYATFGLDSGVPKRFSGSRSGSDYSLTISSLESEDFVDYYCQQYASFPYTFGGGTKLEIK
notes: Fab-scFv-Fab (2+1) format: two anti-GPRC5D Fabs, one anti-CD3 scFv; LALA (L234A, L235A, EU); also called chimeric 2+1 bispecific antibody; 108C4C12 Fab x 40-C12-C10-E9 scFv; not shown: CH1; CL; CH2-CH3 with L234A, L235A; heavy chain constant region with L234A, L235A
IC50 (nM), T-Cell Dependent Cytotoxicity, L363 [6]: 0.001 nM
IC50 (nM), T-Cell Dependent Cytotoxicity, MM.1S [6]: 0.002 nM
IC50 (nM), T-Cell Dependent Cytotoxicity, MOLP-8 [6]: 0.001 nM
IC50 (nM), T-Cell Dependent Cytotoxicity, RPMI8226 [6]: 0.009 nM
IC50 (nM), T-Cell Dependent Cytotoxicity, MM.1S [11]: 0.00641 nM
IC50 (nM), T-Cell Dependent Cytotoxicity, MOLP-8 [11]: 0.00607 nM
IC50 (nM), T-Cell Dependent Cytotoxicity, RPMI8226 [11]: 0.0351 nM
Top (%), T-Cell Dependent Cytotoxicity, MM.1S [11]: 81.5%
Top (%), T-Cell Dependent Cytotoxicity, MOLP-8 [11]: 59%
Top (%), T-Cell Dependent Cytotoxicity, RPMI8226 [11]: 9%

EC50 (nM), luciferase assay, L363 [7]: 44 nM
EC50 (nM), luciferase assay, MM.1S [7]: 0.334 nM
EC50 (nM), luciferase assay, MOLP-8 [7]: 0.756 nM
EC50 (nM), luciferase assay, RPMI8226 [7]: 0.047 nM
MFI (50 µg/ml) [8]: 836 MFI
EC50 [9]: 274 nM
Top (MFI) [9]: 2550 MFI
EC50 (nM), luciferase assay, L363 [10]: 0.0532 nM
EC50 (nM), luciferase assay, MM.1S [10]: 0.0397 nM
EC50 (nM), luciferase assay, MOLP-8 [10]: 0.021 nM
EC50 (nM), luciferase assay, RPMI8226 [10]: 0.0929 nM
Top (RLU), luciferase assay, L363 [10]: 1260 RLU
Top (RLU), luciferase assay, MM.1S [10]: 3910 RLU
Top (RLU), luciferase assay, MOLP-8 [10]: 1060 RLU
Top (RLU), luciferase assay, RPMI8226 [10]: 616 RLU
B3: RG6234 (bispecific antibody, human IgG1, kappa, L234A L235A)
heavy 1: EVQLVESGGGLVQPGRSLKLSCAASGFSFSNYGMAWVRQAATKGLEWVASISTGGGNTYYRDSVKGRFIVSRDNAKNTQYLQMDSLRSEDTATYYCTRHDRGGLYWGQGVMVTVSSASTKGPSVFPLAPSSKSTSGGTAALGCLVEDYFPEPVTVSWNSGALTSGVHTFPAVLQSSGLYSLSSVVTVPSSSLGTQTYICNVNHKPSNTKVDEKVEPKSCDKTHTCPPCPAPEAAGGPSVFLFPPKPKDTLMISRTPEVTCVVVDVSHEDPEVKFNWYVDGVEVHNAKTKPREEQYNSTYRVVSVLTVLHQDWLNGKEYKCKVSNKALGAPIEKTISKAKGQPREPQVCTLPPSRDELTKNQVSLSCAVKGFYPSDIAVEWESNGQPENNYKTTPPVLDSDGSFFLVSKLTVDKSRWQQGNVFSCSVMHEALHNHYTQKSLSLSPGK
heavy 2: not shown
light 1: DIVMTQAPLSVSVTPGESASISCRSSKSLLHSNGITYVYWYFQKPGKSPQVLIYRMSNLASGVPDRFSGSGSETDFTLKISRVEAEDVGIYHCGQLLENPYTFGAGTELELKRTVAAPSVFIFPPSDRKLKSGTASVVCLLNNFYPREAKVQWKVDNALQSGNSQESVTEQDSKDSTYSLSSTLTLSKADYEKHKVYACEVTHQGLSSPVTKSFNRGEC
light 2: EVQLLESGGGLVQPGGSLRLSCAASGFTFSTYAMNWVRQAPGKGLEWVSRIRSKYNNYATYYADSVKGRFTISRDDSKNTLYLQMNSLRAEDTAVYYCVRHGNFGNSYVSWFAYWGQGTLVTVSSRTVAAPSVFIFPPSDEQLKSGTASVVCLLNNFYPREAKVQWKVDNALQSGNSQESVTEQDSKDSTYSLSSTLTLSKADYEKHKVYACEVTHQGLSSPVTKSFNRGEC
notes: construct per WO2019154890A1; also called benchmark antibody RG6234 (Roche)
IC50 (nM), T-Cell Dependent Cytotoxicity, L363 [6]: 0.007 nM
IC50 (nM), T-Cell Dependent Cytotoxicity, MM.1S [6]: 0.006 nM
IC50 (nM), T-Cell Dependent Cytotoxicity, MOLP-8 [6]: 0.002 nM
IC50 (nM), T-Cell Dependent Cytotoxicity, RPMI8226 [6]: 0.031 nM
IC50 (nM), T-Cell Dependent Cytotoxicity, MM.1S [11]: 0.019 nM
IC50 (nM), T-Cell Dependent Cytotoxicity, MOLP-8 [11]: 0.00599 nM
IC50 (nM), T-Cell Dependent Cytotoxicity, RPMI8226 [11]: 0.0899 nM
Top (%), T-Cell Dependent Cytotoxicity, MM.1S [11]: 77.2%
Top (%), T-Cell Dependent Cytotoxicity, MOLP-8 [11]: 53.4%
Top (%), T-Cell Dependent Cytotoxicity, RPMI8226 [11]: 8.1%
